Test results reported in patent publication US20230203185A1 (ECO ANIMAL HEALTH, published 2023).

T1: pCD163-SRCR1-9-huFc (porcine, UniProt Q2VL90 47-1028, limits assumed)
T1 construct: also called pCD163:SRCR1-9-Fc; pCD163SRCR1-9-Fc; not shown: human Fc (huFc)
T1 sequence: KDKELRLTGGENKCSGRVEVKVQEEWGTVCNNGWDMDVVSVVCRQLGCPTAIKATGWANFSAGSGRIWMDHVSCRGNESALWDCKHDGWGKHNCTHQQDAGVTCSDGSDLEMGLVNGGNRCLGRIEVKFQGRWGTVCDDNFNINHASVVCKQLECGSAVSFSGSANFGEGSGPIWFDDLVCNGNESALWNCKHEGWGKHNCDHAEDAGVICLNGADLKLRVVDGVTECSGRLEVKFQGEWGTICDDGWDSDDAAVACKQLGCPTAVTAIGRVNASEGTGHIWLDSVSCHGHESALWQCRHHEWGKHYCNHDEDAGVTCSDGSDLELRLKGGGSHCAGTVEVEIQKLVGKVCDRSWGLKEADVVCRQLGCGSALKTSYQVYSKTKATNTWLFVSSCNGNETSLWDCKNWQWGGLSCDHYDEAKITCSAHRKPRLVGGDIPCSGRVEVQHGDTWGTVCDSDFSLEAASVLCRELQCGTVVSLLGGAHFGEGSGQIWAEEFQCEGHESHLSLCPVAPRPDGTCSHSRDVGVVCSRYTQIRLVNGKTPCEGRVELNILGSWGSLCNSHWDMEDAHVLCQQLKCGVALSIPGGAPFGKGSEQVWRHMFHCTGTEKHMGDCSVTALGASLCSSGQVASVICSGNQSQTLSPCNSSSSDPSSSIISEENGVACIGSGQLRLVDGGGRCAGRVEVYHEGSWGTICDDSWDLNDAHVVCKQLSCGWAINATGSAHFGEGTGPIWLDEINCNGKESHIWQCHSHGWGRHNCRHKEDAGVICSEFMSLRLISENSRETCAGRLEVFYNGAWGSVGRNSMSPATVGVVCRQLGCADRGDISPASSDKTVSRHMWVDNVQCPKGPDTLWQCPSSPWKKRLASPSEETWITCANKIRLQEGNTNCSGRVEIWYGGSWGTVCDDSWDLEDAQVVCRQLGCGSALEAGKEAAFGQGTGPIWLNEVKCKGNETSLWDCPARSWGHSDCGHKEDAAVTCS


Legend:
pCD163-SRCR4-7-huFc = biological target: T2, pCD163-SRCR4-7-huFc (porcine, UniProt Q2VL90 372-818, limits assumed); test: SPR (Biacore 3000), antigen amine-coupled on CM5, VHH injected, pH 7.4
T2 construct: also called pCD163:SRCR4-7-Fc; pCD163-SRCR4-7-Fc; not shown: human Fc (huFc)
Procedure: (§1) To assess the affinity of selected purified clones to pCD163, pCD163-SRCR1-9-huFc or pCD163-SRCR4-7-huFc proteins were coated by amine coupling on a CM5 sensor ship (GE Healthcare). Surface plasmon resonance (SPR) (Biacore 3000, GE Healthcare) was used to determine the binding kinetics of selected single domain antibodies at pH7.4. Approximately 2000 RU of pCD163-SRCR1-9-huFc or pCD163-SRCR4-7-huFc, proteins at 20 or 30 µg/ml in Acetate buffer pH 5.0 or pH 5.5 were immobilized onto a CM5 chip using the standard amine coupling procedure.
(§2) 1x HBS-EP pH 7.4, were utilized as a running buffer during binding kinetic measurements. Purified VHH were injected at 3-fold dilution (300 nM; 100 nM; 33 nM; 11 nM; 3.7 nM; 1.2 nM; 0.4 nM; 0 nM), for 120 s, at a flow rate of 30 µl/min. RU levels were restored to base levels after regeneration with 10 µl of 10 mM NaOH / 1 M NaCl and 10 µl of 10 mM Glycine pH 1.5 between samples. Fitting 1:1 binding with mass transfer was applied to the set sample curves using the simultaneous fitting option of the BIAevaluation software to calculate the kinetic constants of the antibody-antigen interactions including association rate (ka), dissociation rate (kd) and affinity (KD). Curves were removed from the fitting after visual examination of the residuals and considering the value of Chi2: a minimum of 4 curves were considered for the simultaneous fitting.

pCD163-SRCR1-9-huFc [1] = biological target: T1, pCD163-SRCR1-9-huFc; test: as above
Procedure: as §1, §2

pCD163-SRCR1-9-huFc [2] = biological target: T1, pCD163-SRCR1-9-huFc; test: SPR; lower end of the range, tied by Table 7 to VHH 012 on pCD163:SRCR1-9-Fc (1.03)
Procedure: as §1, §2

pCD163-SRCR1-9-huFc [3] = biological target: T1, pCD163-SRCR1-9-huFc; test: SPR; upper end of the range, tied by Table 7 to VHH 017 on pCD163:SRCR1-9-Fc (75.20)
Procedure: as §1, §2

Row | Binder | Kd (pCD163-SRCR4-7-huFc) [nM] | koff (pCD163-SRCR4-7-huFc) [s⁻¹] | kon (pCD163-SRCR4-7-huFc) [M⁻¹ s⁻¹] | Kd (pCD163-SRCR1-9-huFc [1]) [nM] | koff (pCD163-SRCR1-9-huFc [1]) [s⁻¹] | kon (pCD163-SRCR1-9-huFc [1]) [M⁻¹ s⁻¹] | Kd (pCD163-SRCR1-9-huFc [2]) [nM] | Kd (pCD163-SRCR1-9-huFc [3]) [nM]
1 | VHH 015 (2G01) (VHH, Llama single domain antibody; also called 150(#15); VHCDR3 150(#15); not shown: tags: c-myc tag in periplasmic extract (ELISA, FACS); FLAG and His tags in purified VHH (SPR, infection assays)) VHH: QVQLVESGGGLVQAGDTLRLSCTASGRTFSSYSMGWFRQAPGKEREFVAAITWNGYITNYADSVKGRFTISRDNTKNTVFLQMNSLKPEETAVYYCAATTFSTTSPISRTYNYWGPGTQVTVSS | 8.01 | 0.00442 | 551000 | 14.7 | 0.00583 | 396000 |  | 
2 | VHH 002 (1B04) (VHH, Llama single domain antibody; also called 76(#2); VHCDR3 76(#2); not shown: tags: c-myc tag in periplasmic extract (ELISA, FACS); FLAG and His tags in purified VHH (SPR, infection assays)) VHH: QVQLVESGGGLVQAGGSLRLSCAASGLTFVTYSMGWFRQAPGKEREFVAAHRWSGSAYYAEHADSVEGRFTISRDYAKNMLYLQMNSLKHEDTAVYYCAAGVGSAAQYRYWGRGTQVTVSS | 19 | 0.0149 | 787000 | 20 | 0.0108 | 539000 |  | 
3 | VHH 008 (1H01) (VHH, Llama single domain antibody; also called 78(#8); VHCDR3 78(#8); not shown: tags: c-myc tag in periplasmic extract (ELISA, FACS); FLAG and His tags in purified VHH (SPR, infection assays)) VHH: QVQLVESGGGLVQAGGSLRLSCAASGRTFGTYSMGWFRQAPGKEREFVAAHRWSGSAYYAEHADSVEGRFTISRDYAKNMLYLQMNSLKHEDTAVYYCAAGVGSEAQYRYWGRGTQVTVSS | 34.7 | 0.00542 | 156000 |  |  |  |  | 
4 | VHH 016 (2H11) (VHH, Llama single domain antibody; also called 77(#16); VHCDR3 77(#16); not shown: tags: c-myc tag in periplasmic extract (ELISA, FACS); FLAG and His tags in purified VHH (SPR, infection assays)) VHH: EVQLVESGGGLVQAGGSLRLSCAASGRTFAPGSMGWFRQAPGKEREFVAAHRWSGSAYYADYADSVEGRFTISRDYAKNMVYLQMNSLKPGDTAVYYCAAGVGSAAQYTYWGRGTQVTVSS | 30 | 0.00674 | 224000 | 44.3 | 0.00972 | 219000 |  | 
5 | VHH 018 (3E01) (VHH, Llama single domain antibody; also called 49(#18); VHCDR3 49(#18); not shown: tags: c-myc tag in periplasmic extract (ELISA, FACS); FLAG and His tags in purified VHH (SPR, infection assays)) VHH: QVQLQESGGGLVQVGGSLRLSCVASGRAPSRYVMGWFRQAPGQEREFVAGIAWSGRAPYADSVKGRSTISRDNAKNTVYLQMNSLKPEDTGVYYCAGGEGAIRWTTLDAYDYWGQGTQVTVSS | 42 | 0.0121 | 288000 | 16.5 | 0.0134 | 814000 |  | 
6 | VHH 019 (3E11) (VHH, Llama single domain antibody; also called 47(#19); VHCDR3 47(#19); not shown: tags: c-myc tag in periplasmic extract (ELISA, FACS); FLAG and His tags in purified VHH (SPR, infection assays)) VHH: QVQLQESGGGLVQVGSSLRLSCVTSGRTPSRYVMGWFRQAPGQEREFVAAISWSGRAPYADSVKGRFTISRDNAKNTVYLQMNSLKPEDTGVYYCAGGEGAIKWTTLDAYDYWGQGTQVTVSS | 21.1 | 0.0103 | 487000 | 8.77 | 0.0102 | 1.16e+06 |  | 
7 | VHH 020 (3H11) (VHH, Llama single domain antibody; also called 48(#20); VHCDR3 48(#20); not shown: tags: c-myc tag in periplasmic extract (ELISA, FACS); FLAG and His tags in purified VHH (SPR, infection assays)) VHH: QVQLQESGGGLVQVGGSLRLSCVASGRTPSRYVMGWFRQAPGQEREFVAGIAWSGRAPYADSVKGRFVISRDSAKNTVYLQMNSLKSEDTGVYYCAGGEGAILWTTPGAYNYWGQGTQVTVSS | 18.2 | 0.00843 | 462000 | 9.15 | 0.00865 | 945000 |  | 
8 | VHH 023 (4E10) (VHH, Llama single domain antibody; also called 70(#23); VHCDR3 70(#23); not shown: tags: c-myc tag in periplasmic extract (ELISA, FACS); FLAG and His tags in purified VHH (SPR, infection assays)) VHH: QVQLVESGGGLVQAGGSLRLSCVASSRTSSTYAMGWFRQGPGKERDFVAIISFGGTFYADSVKGRFTISRDNAKNTVYLQMNSLKPEDTAVYYCAAGRTLSKRADSYASWGQGTQVTVSS | 1.52 | 0.00755 | 4.96e+06 | 3.1 | 0.00927 | 2.99e+06 |  | 
9 | VHH 001 (1B02) (VHH, Llama single domain antibody; also called 144(#1); VHCDR3 144(#1); not shown: tags: c-myc tag in periplasmic extract (ELISA, FACS); FLAG and His tags in purified VHH (SPR, infection assays)) VHH: EVQLVESGGGLVQAGGSLSLSCAASGGTLAMYAMSWFRQAPGKDRKFVAAINTSGRYSRYADSVKGRFTISRDNAKNTATLQMNSLEPEDTAVYYCAATDKGNWALAMSYDYWGQGTQVTVSS | 9.26 | 0.0227 | 2.46e+06 | 7.08 | 0.0178 | 2.52e+06 |  | 
10 | VHH 011 (2B06) (VHH, Llama single domain antibody; also called 57(#11); VHCDR3 57(#11); not shown: tags: c-myc tag in periplasmic extract (ELISA, FACS); FLAG and His tags in purified VHH (SPR, infection assays)) VHH: EVQLVESGGGLVQAGGSLRLSCAASGRTLSVYGTGWFRQAPGKEREFVAGISGTTGSTLYADSVKGRFTISRDNAKNTVYLQMNSLKSEDTALYYCAAGGRVYITTSSWAYWGQGTQVTVSS | 34.5 | 0.0151 | 437000 | 71.4 | 0.01 | 140000 |  | 
11 | VHH 012 (2C07) (VHH, Llama single domain antibody; also called 41(#12); VHCDR3 41(#12); not shown: tags: c-myc tag in periplasmic extract (ELISA, FACS); FLAG and His tags in purified VHH (SPR, infection assays)) VHH: QLQLVESGGGLVQAGGSLRLSCVASGRTFSRYAMGWFRQAPGKEREFVAAIAWSTGSTYYANSVKGRFAISGDNAKNTVYLQMNSLKPEDTAVYYCAAETRYCSGFGCLDPRTYGSWGQGTQVTVSS | 1.51 | 0.00426 | 2.83e+06 | 1.03 | 0.00617 | 5.97e+06 | 1 to 75 | 
12 | VHH 017 (3D03) (VHH, Llama single domain antibody; also called 29(#17); VHCDR3 29(#17); not shown: tags: c-myc tag in periplasmic extract (ELISA, FACS); FLAG and His tags in purified VHH (SPR, infection assays)) VHH: QLQLVESGGGLVQPGGSLRLSCAASGFTLDDYTIGWFRQAPGKEREGVSCINSITSNTYYADSVKGRFTISRDNAKNTVYLQMNSLTAEDTAIYYCAADSGLFSGSSCLKYRAMRFGSWGQGTQVTVSS | 22.6 | 0.00345 | 153000 | 75.2 | 0.083 | 1.1e+06 |  | 1 to 75
